Laboratory results published in the supplement of paper PMC12764529.
± gives the half width of the 95% confidence interval.

Key:
[1] = folding stability dG unfold (combined trypsin and chymotrypsin); higher = more stable
How it was run: (§1)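 Digests were run with trypsin and chymotrypsin at 11 concentrations in threefold dilutions, plus a no-protease condition, on designed mini-proteins in a PA-tagged cDNA display construct. The mini-proteins were under 80 residues, had no cysteine, and were kept only when AlphaFold2 dimer inter-PAE was above 15. After sequencing, Bayesian fitting of the counts gave K50, from which unfolding free energy was derived against a sequence-predicted unfolded-state K50 and a shared folded-state K50, per protease or combined.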

[2] = folding stability dG unfold from chymotrypsin proteolysis; higher = more stable
How it was run: as §1

[3] = folding stability dG unfold from trypsin proteolysis; higher = more stable
How it was run: as §1

For “SAGGSAGGSAGGDGIVVPVDEAVGLIKELGLKVVGVFEHPGGPPAVLFELPDGRLLLAESAGGSAGGSAGGS [r10_210_TrMRF]”, the “folding stability dG unfold” value [1] was 0.603 ± 0.047 kcal/mol, the “folding stability dG unfold” value [2] was 0.792 ± 0.042 kcal/mol and the “folding stability dG unfold” value [3] was 0.381 ± 0.045 kcal/mol.
In the case of “SAGGSAGKITIPARVKITLTPPNGPTVTFDAIITRVEDNSIELILGNVPITIPPNAKNVTITSVEGSAGGSA [r15_510_TrMRF]”, the “folding stability dG unfold” value [1] is reported as 1.49 ± 0.052 kcal/mol, the “folding stability dG unfold” value [2] is reported as 1.53 ± 0.022 kcal/mol and the “folding stability dG unfold” value [3] is reported as 1.45 ± 0.018 kcal/mol.
For “SAGGSAGGSAGGKTIVLLDEETNELVTIEIDEETGEVKITVVRLKDGKLETKTETIKLPSAGGSAGGSAGGS [r10_756_TrROS_Hall]”, the “folding stability dG unfold” value [1] was 2.07 ± 0.19 kcal/mol, the “folding stability dG unfold” value [2] was 2.23 ± 0.21 kcal/mol and the “folding stability dG unfold” value [3] was 1.93 ± 0.091 kcal/mol.
For “SAGGSAGGSKNDWGEFDAEVPFFKEKKKVKIYKNPDNPNIYYIEFPKTGKIFKVYPNGEIKEESAGGSAGGS [r12_580_TrMRF]”, the “folding stability dG unfold” value [1] was 1.49 ± 0.16 kcal/mol, the “folding stability dG unfold” value [2] was 1.75 ± 0.17 kcal/mol and the “folding stability dG unfold” value [3] was 1.01 ± 0.062 kcal/mol.
In the case of “SAGGSAGGMITVNSEEEAKELEAELKEKGYKAEVTPKTGKNGPYYLITLTPIPKKKKSTKKSKLSAGGSAGG [r6_182_JUSTAS]”, the “folding stability dG unfold” value [1] is reported as 1.13 ± 0.21 kcal/mol, the “folding stability dG unfold” value [2] is reported as 1.03 ± 0.11 kcal/mol and the “folding stability dG unfold” value [3] is reported as 1.16 ± 0.095 kcal/mol.
In the case of “SAGGSAGGSWYLRIEYMNGKEREFPFPPDMPGQPAEEIADKLGSPNMKVEFYDPEGEPREFDISAGGSAGGS [r12_411_TrROS]”, the “folding stability dG unfold” value [1] is reported as 0.726 ± 0.18 kcal/mol, the “folding stability dG unfold” value [2] is reported as 0.754 ± 0.13 kcal/mol and the “folding stability dG unfold” value [3] is reported as 0.589 ± 0.071 kcal/mol.
In the case of “SAGKEKKPPKKVTLTLEIEIEVPEEEEEKAKELAEELEEELRKLGIEKVEVEYDKETKRVRIRVTVVLPSAG [r5_512_TrROS_Hall]”, the “folding stability dG unfold” value [1] is reported as 2.74 ± 0.36 kcal/mol, the “folding stability dG unfold” value [2] is reported as 3.01 ± 0.094 kcal/mol and the “folding stability dG unfold” value [3] is reported as 2.22 ± 0.086 kcal/mol.
With “SAGGEEEKVVLTPEEIERLLKELAEALGLEVTITEIEVEEDYVTITVEIKVDGKTLTLTLKLRIEPEPSAGG [r13_652_TrROS_Hall]” the “folding stability dG unfold” value [1] was 5.14 ± 0.36 kcal/mol, the “folding stability dG unfold” value [2] was 5.23 ± 0.15 kcal/mol and the “folding stability dG unfold” value [3] was 4 ± 0.42 kcal/mol.
In the case of “SAGGSAGGSAKYKPIGELEFEFENGIRLRVTFYEGEGEKIAIVEIEIPEPSLEEAIKILESSAGGSAGGSAG [r3_158_TrMRF]”, the “folding stability dG unfold” value [1] is reported as 2.56 ± 0.09 kcal/mol, the “folding stability dG unfold” value [2] is reported as 2.79 ± 0.037 kcal/mol and the “folding stability dG unfold” value [3] is reported as 2.14 ± 0.095 kcal/mol.
For “SAGGSAGGSAKIKPGEKVEITLKDGSKVIIEKKEDGKYLARIIDKKTNEVKTVPLDKIKLVSAGGSAGGSAG [r3_213_TrROS_Hall]”, the “folding stability dG unfold” value [1] was 1.13 ± 0.14 kcal/mol, the “folding stability dG unfold” value [2] was 1.08 ± 0.046 kcal/mol and the “folding stability dG unfold” value [3] was 0.99 ± 0.057 kcal/mol.
With “SMPLKVTVEVYEPGGNPLGSKTYEVEPGETLTFTFPRPVKGRVTITDPNADNPQTVTGDPATGTLTFPLVSA [r9_272_JUSTAS]” the “folding stability dG unfold” value [1] was 0.858 ± 0.069 kcal/mol, the “folding stability dG unfold” value [2] was 0.909 ± 0.086 kcal/mol and the “folding stability dG unfold” value [3] was 0.587 ± 0.056 kcal/mol.
For “SAGGSAGGSAGGSKKIVIRVKDKDGNEREIVLEVPEEELTEEEIAELAKKFPNAEIEVLSAGGSAGGSAGGS [r4_422_TrROS_Hall]”, the “folding stability dG unfold” value [1] was 1.96 ± 0.13 kcal/mol, the “folding stability dG unfold” value [2] was 1.02 ± 0.053 kcal/mol and the “folding stability dG unfold” value [3] was 2.48 ± 0.13 kcal/mol.
For “SAGGSADIPSDWTVTPVSSSYDPATGTTTTEETVYDSKGNPQYKITVTTTFDPTTGTTTTTVTYNPSAGGSA [r15_1028_JUSTAS]”, the “folding stability dG unfold” value [1] was 2.17 ± 0.058 kcal/mol, the “folding stability dG unfold” value [2] was 2.054 ± 0.018 kcal/mol and the “folding stability dG unfold” value [3] was 2.37 ± 0.066 kcal/mol.
In the case of “SAGGSAGGSAGKPKVYVKPIVKKGDYVLYLSYYPEEKKIELWVDKFGDKPKRFVKEYPLESAGGSAGGSAGG [r11_738_TrMRF]”, the “folding stability dG unfold” value [1] is reported as 1.13 ± 0.068 kcal/mol, the “folding stability dG unfold” value [2] is reported as 1.25 ± 0.07 kcal/mol and the “folding stability dG unfold” value [3] is reported as 0.866 ± 0.043 kcal/mol.
For “SAGGSAGGSNFRIIEFDIKLKIPVMKMEPDPDGKPKMEMQPVKIPIKVTIFVFGNGIFIMITFSAGGSAGGS [r20_58_TrROS]”, the “folding stability dG unfold” value [1] was 5.11 ± 0.29 kcal/mol, the “folding stability dG unfold” value [2] was 5.29 ± 0.16 kcal/mol and the “folding stability dG unfold” value [3] was 3.42 ± 0.24 kcal/mol.
With “SAGGSAGGMDAEELAERIANHFQEHFPDMPIKVEVDPDHGWAKIEMRNPNNPGQKHEFEIPIDKSAGGSAGG [r6_478_TrROS]” the “folding stability dG unfold” value [1] was 0.912 ± 0.1 kcal/mol, the “folding stability dG unfold” value [2] was 1.29 ± 0.031 kcal/mol and the “folding stability dG unfold” value [3] was 0.311 ± 0.093 kcal/mol.
With “SAGGSAGGSAGGGELKYRTLTVDLPVDDPDGRKLPRRLVITFPASNPELAEAFLKALGYSAGGSAGGSAGGS [r10_1062_TrMRF]” the “folding stability dG unfold” value [1] was 1.52 ± 0.034 kcal/mol, the “folding stability dG unfold” value [2] was 1.75 ± 0.021 kcal/mol and the “folding stability dG unfold” value [3] was 1.11 ± 0.012 kcal/mol.
With “SAGGSAPEVKIVDVEEVDGEVKIKVEAPPGARLLIFNRATGKWEEVEVKPGDTITLPPGALVLVEPSAGGSA [r15_418_TrROS_Hall]” the “folding stability dG unfold” value [1] was 2.88 ± 0.1 kcal/mol, the “folding stability dG unfold” value [2] was 3.22 ± 0.035 kcal/mol and the “folding stability dG unfold” value [3] was 1.77 ± 0.025 kcal/mol.
For “SAEVEVELVEVNGKLFLVMKVKEKDENGKEREYLVVVEVEFDPETKKLTVKVYVFPSKEEAEEALKKLLSAG [r14_500_TrROS_Hall]”, the “folding stability dG unfold” value [1] was over 6 kcal/mol, the “folding stability dG unfold” value [2] was 5.26 ± 0.45 kcal/mol and the “folding stability dG unfold” value [3] was 3.92 ± 0.52 kcal/mol.
For “SAETVVIPIEAPEDEILAAIKALIDANPDVKITITYADGEKKEITLPDGTKITIERLPDGTLLITVEKVSAG [r14_807_TrROS_Hall]”, the “folding stability dG unfold” value [1] was 2.49 ± 0.17 kcal/mol, the “folding stability dG unfold” value [2] was 1.74 ± 0.066 kcal/mol and the “folding stability dG unfold” value [3] was 3.19 ± 0.23 kcal/mol.
For “SAGGSAGGSAGAVFTLPDGMKITIEKNEDGTYTITIETDGKTETIEIKPGETIEIEIFPPSAGGSAGGSAGG [r11_164_TrROS_Hall]”, the “folding stability dG unfold” value [1] was 2.91 ± 0.077 kcal/mol, the “folding stability dG unfold” value [2] was 3.202 ± 0.03 kcal/mol and the “folding stability dG unfold” value [3] was 2.43 ± 0.093 kcal/mol.
